# Results taken from the array DNA melting data of Ke et al..
# Assay: melting temperature; melt of duplexes
# Settings: sodium 0.0675 M; strand 1 µM
row,Substance,Tm [°C]
1,CGACGTGCCTAATGTGCTG+CAGCACATATAGCACGTCG ((((((((...((((((((+))))))))...)))))))),49.6
2,CGACGTGCACGATGTGCTG+CAGCACATATAGCACGTCG ((((((((...((((((((+))))))))...)))))))),45.6
3,CGACGTGCAGAATGTGCTG+CAGCACATTAAGCACGTCG ((((((((..(((((((((+)))))))))..)))))))),53.3
4,CGACGTGCGGGATGTGCTG+CAGCACATTATGCACGTCG ((((((((...((((((((+))))))))...)))))))),51.8
5,CGACGTGCCACATGTGCTG+CAGCACATATAGCACGTCG ((((((((.(.((((((((+)))))))).).)))))))),48.4
6,CGACGTGCTTGATGTGCTG+CAGCACATAATGCACGTCG ((((((((.(.((((((((+)))))))).).)))))))),52.1
7,CGACGTGCTAAATGTGCTG+CAGCACATTGAGCACGTCG (((((((((.(((((((((+))))))))).))))))))),57.2
8,CGACGTGCTATATGTGCTG+CAGCACATGAAGCACGTCG (((((((((..((((((((+))))))))..))))))))),53.2
9,CGACGTGCAAAATGTGCTG+CAGCACATACAGCACGTCG ((((((((...((((((((+))))))))...)))))))),49.7
10,CGACGTGCGAAATGTGCTG+CAGCACATATCGCACGTCG ((((((((((.((((((((+)))))))).)))))))))),57.4
11,CGACGTGCGGCATGTGCTG+CAGCACATACGGCACGTCG ((((((((.(.((((((((+)))))))).).)))))))),51.5
12,CGACGTGCACTATGTGCTG+CAGCACATCCAGCACGTCG ((((((((...((((((((+))))))))...)))))))),42.6
13,CGACGTGCGCGATGTGCTG+CAGCACATTGGGCACGTCG ((((((((.(.((((((((+)))))))).).)))))))),57.1
14,CGACGTGCATAATGTGCTG+CAGCACATATGGCACGTCG ((((((((...((((((((+))))))))...)))))))),50.4
15,CGACGTGCGACATGTGCTG+CAGCACATTGCGCACGTCG (((((((((..((((((((+))))))))..))))))))),55.3
16,CGACGTGCAACATGTGCTG+CAGCACATGCAGCACGTCG ((((((((..(((((((((+)))))))))..)))))))),53.9
17,CGACGTGCTTAATGTGCTG+CAGCACATGATGCACGTCG ((((((((.(.((((((((+)))))))).).)))))))),53
18,CGACGTGCCTCATGTGCTG+CAGCACATCATGCACGTCG ((((((((.(.((((((((+)))))))).).)))))))),47.2

row,Substance,Tm [°C]
1,CGACGTGCCTTATGTGCTG+CAGCACATCTGGCACGTCG (((((((((..((((((((+))))))))..))))))))),53.7
2,CGACGTGCGTGATGTGCTG+CAGCACATACGGCACGTCG ((((((((...((((((((+))))))))...)))))))),51.1
3,CGACGTGCCAAATGTGCTG+CAGCACATTTGGCACGTCG (((((((((((((((((((+))))))))))))))))))),64.5
4,CGACGTGCTATATGTGCTG+CAGCACATTTCGCACGTCG ((((((((.(.((((((((+)))))))).).)))))))),49
5,CGACGTGCATTATGTGCTG+CAGCACATAGAGCACGTCG ((((((((..(((((((((+)))))))))..)))))))),51.2
6,CGACGTGCAACATGTGCTG+CAGCACATGCTGCACGTCG (((((((((.(((((((((+))))))))).))))))))),56.9
7,CGACGTGCATAATGTGCTG+CAGCACATGAGGCACGTCG ((((((((.(.((((((((+)))))))).).)))))))),53.2
8,CGACGTGCCGGATGTGCTG+CAGCACATTCAGCACGTCG ((((((((.(.((((((((+)))))))).).)))))))),52.4
9,CGACGTGCGACATGTGCTG+CAGCACATAGGGCACGTCG ((((((((...((((((((+))))))))...)))))))),50
10,CGACGTGCAACATGTGCTG+CAGCACATTTCGCACGTCG ((((((((.(.((((((((+)))))))).).)))))))),49
11,CGACGTGCAGAATGTGCTG+CAGCACATCTTGCACGTCG (((((((((..((((((((+))))))))..))))))))),52.3
12,CGACGTGCGGTATGTGCTG+CAGCACATCACGCACGTCG (((((((((..((((((((+))))))))..))))))))),56.7
13,CGACGTGCCACATGTGCTG+CAGCACATGGCGCACGTCG ((((((((..(((((((((+)))))))))..)))))))),54
14,CGACGTGCGGGATGTGCTG+CAGCACATCGTGCACGTCG ((((((((..(((((((((+)))))))))..)))))))),56.2
15,CGACGTGCTAGATGTGCTG+CAGCACATTTTGCACGTCG ((((((((.(.((((((((+)))))))).).)))))))),52
16,CGACGTGCGTTATGTGCTG+CAGCACATGTGGCACGTCG ((((((((...((((((((+))))))))...)))))))),49.6
17,CGACGTGCATTATGTGCTG+CAGCACATAAAGCACGTCG ((((((((.((((((((((+)))))))))).)))))))),54.6
18,CGACGTGCGCTATGTGCTG+CAGCACATAGGGCACGTCG ((((((((.((((((((((+)))))))))).)))))))),59.6
